Laboratory results: the DeepSol protein solubility set

Assay: soluble on expression in E. coli; label from the status in PepcDB or PDB records

Row | Sequence | soluble on expression in E. coli
1 | MMTGLTLLSCSTENDEFKKELPPTEQPSEPTGALLERFSIDQLPAKTIYALGESIDLTGLKVTGEYDDGKQRSVNVAPKQISGFSSSVPVDKQEVTITIEGKQKSFTIQVAPVRVENGVLTEVLKGYDEIILPNSVKSIPKNAFNGSKINKVTLNEGLKSIGDMAFFNSTIQEVIFPSTLEQLEENIFYYCYHLKKADLSRTKLTKLPASTFVYAGVEEVLLPATLTEIDAQAFLKTSQLKTIEIPENVRTIGLEAFRESSITTVKLPNGVTNIAQRAFYYCPELTEVTTYGTVFNDDPEAMIHPYCLEGCPQLTRFEIPQSIRILGQGLLGGNRKVTQLTIPANVTQINFSAFNNTGIKEVKVEGITPPQVFEKIWYGFPDDITVIRVPAESVEKYKTAAGWQDYTNKIQASLEHHHHHH | soluble
2 | MMTVLRSQIESILLVVDQPASVAALARATEAAPETVTSVLRSMAQEFEDRGSGIEVRESPEGWRLYTVKRNADVVEKFLLDGSHTKLSRAALETLAVVAYRQPATRAQVAAVRGVNVDGVMRTLQLRGLIREVAINPGTEGVNGSAHRYETTELFLDLLGIDSLERLPDLAPLLPDIDSIDEYF | not soluble
3 | MMVVKVKMLYWVDEVGGRAESMEIELKPFGYRTAPITQWEVLIAAEDVEVEKGKPVIVRVEPVFLPGNTLVGPLSIMRHALGTLVDVVECGVPGRVEDEKCISRVLFLPVEDGVIKKGDMVGVLKVFYIKTGLLTRILGLEPPKVELKKGFHEANIVWRDNGNIYREPAKVTILGYMRSHIGVWELLVADETVRVKRGDVLRIRIKEVRLPPNTVVVPLPVMRNAFGTVLDVVQLGKPSRVEEEKTLHQAIFLAVEDGVIEEGDLIGVINVYYVGLGDFKPLVQDKPPQKVRIVYRSGDGIVKREVEVEPFGYRRSPVGKWEALIADESKPVRYGEPVVVKVKRVRVPPKTILYPLHIMRHAYGTVADVFCDCKPWKVEEGGEIKKVVFLPVMDGEIKEGELLGIINLHDVELSPLGRVRQWLDNWLTEMGRTFDEGDWPLWLEHHHHHH | soluble
4 | MMYIYTYTDPFGKRRYTYSKDLVKLREKEQKLLKDQLDGLDVYAAGNANLNFVFDRYISTKTELRRTTYTNYMYMYDHYVRDSFGKKKIGEIKYSDVLYFYYHLINERKLQVNTLETIHTVLHPTFQLAVRDDIIRNNPSHGVMSEIKKKPGRNHGVRHALTVEQQRAFMNYTSNSPVFNHWAPLFTVLLGTGCRIGEIIGIRWEDIDLEKRLININHSVTYYPRRAETTKCEFAVSLPKTEAGIRTVPMMEPVYNAFMEEYEYQKENGFSTVTLDGMEGFIFTNRFGNLHNPQAVNRTIKRI | not soluble
5 | MNAADRVMQSYGRCCASTGFFDDFYRHFLASSPQIRAKFATTDMTAQKHLLRAGIMNLVMYARGMSDSKLRALGASHSRAALDIRPELYDLWLDALLMAVAEHDRDCDAETRDAWRDVMGRGIAVIKSYY | soluble
6 | MNAKEILVHSLRLLENGDARGWCDLFHPEGVLEFPYAPPGWKTRFEGRETIWAHMRLFPEHLTVRFTDVQFYETADPDLAIGEFHGDGVATVSGGKLAQDYISVLRTRDGQILLYRDFWNPLRHLEALGGVEAAAKIVQGA | soluble
7 | MNALLRFTLGLCSMTLLAGCGENIDHSKIRSSGFVYCGESAPTTFNPQLADNDITSDALGPQIYNTLLTIDPETHLPVASLASSWTVNSTGLEYVFKLRPDVAFQTTPWFSPTRPLNADDVVFSFRRIIDPTNPYHKVGQTQYPWFKGIDFQNLLVDVSALDDLTVKFVLSRPDNSFLSNIATSHAVILSLEYANQLIIDDEKEKLDNLPLGTGPFYLAEYHPRDLIRLKRHPQYWEGAAKVEQVVFDISQRGTGMLAKLLRNECDVLNAPISSQLPAIEKNPDIVLQTTPAMNVAFIAVNTQHPALNDNRVRKALNFAINRQNILDSVYYGTGSIAFTILPPTSWAYQQDTAQIRYDRNYAQALLREAGFATGLELTMSVPVEPKAYNPSPRKTAELIQANLADIGVTLRLISEDRSERQELSIRNNIDLYLSGWTGDTGDPDNFLRPLLSCDSNRAGLNVSMWCDSDFDFLLDLALEANKPRYRLNLYHQAQNILNQEFPVIPLAHGIQFTAYSKSLTGIRISPFNVQPFNTVERVAE | not soluble
